Reference: publication PMC6860926 (Journal of the American Chemical Society, 2019)

Molecular target: human GLP-1 receptor (GLP-1R), stably expressed in FlpIn CHO cells (human) (UniProt P43220)
Sequence of UniProt P43220 (P43220 24-463): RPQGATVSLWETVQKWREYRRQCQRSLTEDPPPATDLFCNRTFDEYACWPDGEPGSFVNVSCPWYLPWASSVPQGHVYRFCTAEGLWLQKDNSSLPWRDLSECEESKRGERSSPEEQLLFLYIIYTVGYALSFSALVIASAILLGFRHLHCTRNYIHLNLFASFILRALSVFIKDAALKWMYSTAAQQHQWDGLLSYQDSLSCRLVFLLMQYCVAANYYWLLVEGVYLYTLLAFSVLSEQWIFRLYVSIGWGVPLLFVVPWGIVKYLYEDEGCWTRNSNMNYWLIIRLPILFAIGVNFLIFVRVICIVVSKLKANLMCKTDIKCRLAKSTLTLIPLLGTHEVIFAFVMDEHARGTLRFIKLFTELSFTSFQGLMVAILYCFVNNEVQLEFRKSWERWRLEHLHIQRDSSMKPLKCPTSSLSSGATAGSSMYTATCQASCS

Question: Which cAMP accumulation in FlpIn CHO cells stably expressing human GLP-1R, pEC50 does the source give for glucagon-like peptide-1 [GLP-1(7–37)] here?
Answer: The cAMP accumulation in FlpIn CHO cells stably expressing human GLP-1R, pEC50 was 10.8.
